# Reference: IntAct's records for PubMed 10357812
# B1: Synaptojanin-2 (Rattus norvegicus (Rat)), O55207-3 (parent)
# chain: MALSKGLRLLARLDPTGPSSVLLEARGRGDCLLFEAGAVATLAPEEKEVIKGLYGKPTDAYGCLGELSLKSGGVPLSFLVLVTGCTSVGRIPDAEIYKITGTEFYPLQEEAKEEDRLPALKKILSSGVFYFAWPNDGACFDLTIRAQKQGDDCSEWGTSFFWNQLLHVPLRQHQVNCHDWLLKVICGVVTIRTVYASHKQAKACLISRISCERAGARFLTRGVNDDGHVSNFVETEQAIYMDDGVSSFVQIRGSVPLFWEQPGLQVGSHHLRLHRGLEANAPAFERHMVLLKEQYGQQVVVNLLGSRGGEEVLNRAFKKLLWASCHAGDTPMINFDFHQFAKGRKLEKLENLLRPQLKLHWDDFGVFAKGENVSPRFQKGTLRMNCLDCLDRTNTVQCFIALEVLHLQLESLGLNSKPITDRFVESFKAMWSLNGHGLSKVFTGSRALEGKAKVGKLKDGARSMSRTIQSNFFDGVKQEAIKLLLVGDVYNEESTDKGRMLLDNTALLGLGSNKQNSLSGMLDGKATPRILKAMTERQSEFTNFKRIQIAMGTWNVNGGKQFRSNLLGTTELTDWLLDAPQLSGAVDSQDDGGPADIFAVGFEEMVELSAGNIVNASTTNRKMWGEQLQKAISRSHRYILLTSAQLVGVCLYIFVRPYHVPFIRDVAIDTVKTGMGGKAGNKGAVGIRFQFHSTSFCFICSHLTAGQSQVKERNEDYREITHKLSFPSGRNIFSHDYVFWCGDFNYRIDLTYEEVFYFVKRQDWKKLMEFDQLQLQKSSGKIFKDFHEGTINFGPTYKYDVGSAAYDTSDKCRTPAWTDRVLWWRKKHPYDKTAGELNLLDSDLDGDANIRHTWSPGTLKYYGRAELQASDHRPVLAIVEVEVQEVDVGARERVFQEVSSVQGPLDATVIVNLQSPTLEERNEFPEDLRTELMQTLGNYGTIILVRINQGQMLVTFADSHSALSVLDVDGMKVKGRAVKIRPKTKDWLEGLREELIRKRDSMAPVSPTANSCLLEENFDFTSLDYESEGDVLEDDEDYLADEFGQPVVSDSELGGDDSSDTMSASTPASKSPALAKKKQHPTYKDDADLMTLKLELEVAGNFRHRSPSRSLSVPNRPRPPHPPQRPPPPTGLMVKKSASDASISSGTHGQYSILQTAKLLPGAPQQPPKARTGISKPYNVKQIKTTNAQEAEAAIRCLLEAGGGVPESAPGATPLRNQGSSKPEASLGPPVLPRRPVPRVPTMKKPTLRRTGKIVFCSSSQASQPCSLLQRHEFVRTVAAQRLTPVDASGSSV
# partner: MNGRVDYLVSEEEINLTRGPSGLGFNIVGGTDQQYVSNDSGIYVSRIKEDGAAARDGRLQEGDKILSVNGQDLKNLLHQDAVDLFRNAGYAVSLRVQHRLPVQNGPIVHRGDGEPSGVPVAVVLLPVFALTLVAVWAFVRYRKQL
# Variants of: B1
# Settings: with syj2b_rat Synj2bp
row,effect of a mutation on the interaction,Variant
1,disrupting interaction,G1290A
2,disrupting interaction,S1291A
3,disrupting interaction,V1293A
